Experiments:
Assay in all cases: Ni-NTA pull-down of fluorescent DNA with competition, filter plate
[1] = molecular target: IF2D1-Klf4-R9 (human, UniProt O43474 1-513)
[2] = molecular target: IF2D1-Sox2-R9 (human, UniProt P48431 1-317)
[3] = molecular target: IF2D1-Oct4-R9 (human, UniProt Q01860 1-360)
Sequence of IF2D1-Oct4-R9 (Q01860 whole entry): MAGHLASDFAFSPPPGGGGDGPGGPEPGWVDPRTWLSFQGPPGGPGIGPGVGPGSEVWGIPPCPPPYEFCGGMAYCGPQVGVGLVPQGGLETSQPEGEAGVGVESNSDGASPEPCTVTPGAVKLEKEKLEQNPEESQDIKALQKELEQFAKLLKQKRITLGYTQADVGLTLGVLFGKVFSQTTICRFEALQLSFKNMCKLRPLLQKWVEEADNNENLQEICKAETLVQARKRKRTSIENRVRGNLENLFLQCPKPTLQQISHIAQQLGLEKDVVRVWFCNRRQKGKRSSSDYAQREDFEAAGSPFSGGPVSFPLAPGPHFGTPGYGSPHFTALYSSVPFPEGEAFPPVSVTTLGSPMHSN

Sequence of IF2D1-Klf4-R9 (O43474 whole entry): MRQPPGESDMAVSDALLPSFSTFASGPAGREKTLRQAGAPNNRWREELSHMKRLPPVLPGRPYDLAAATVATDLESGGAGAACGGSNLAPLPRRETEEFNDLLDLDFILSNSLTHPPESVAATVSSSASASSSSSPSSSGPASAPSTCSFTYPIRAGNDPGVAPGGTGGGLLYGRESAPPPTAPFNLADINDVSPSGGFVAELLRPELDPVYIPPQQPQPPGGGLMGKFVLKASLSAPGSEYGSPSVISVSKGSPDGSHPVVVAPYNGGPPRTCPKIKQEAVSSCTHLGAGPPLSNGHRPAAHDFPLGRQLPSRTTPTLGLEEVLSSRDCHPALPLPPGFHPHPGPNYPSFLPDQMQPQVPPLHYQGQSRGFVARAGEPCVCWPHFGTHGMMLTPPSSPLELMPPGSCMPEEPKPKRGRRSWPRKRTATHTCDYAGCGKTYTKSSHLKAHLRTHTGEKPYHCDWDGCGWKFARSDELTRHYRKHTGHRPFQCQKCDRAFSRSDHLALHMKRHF
Sequence of IF2D1-Sox2-R9 (P48431 whole entry): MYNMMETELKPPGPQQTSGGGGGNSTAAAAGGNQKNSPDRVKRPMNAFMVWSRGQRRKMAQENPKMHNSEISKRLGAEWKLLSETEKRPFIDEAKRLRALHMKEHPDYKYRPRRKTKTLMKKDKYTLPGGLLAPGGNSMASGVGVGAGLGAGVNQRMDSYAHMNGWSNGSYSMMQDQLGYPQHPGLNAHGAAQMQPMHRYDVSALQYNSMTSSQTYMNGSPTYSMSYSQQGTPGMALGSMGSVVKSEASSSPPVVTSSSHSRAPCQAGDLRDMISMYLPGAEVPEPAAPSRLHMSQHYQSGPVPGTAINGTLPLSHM

B1: Klf4 cognate probe (dsDNA)
DNA 1: CAGAGAACCCCACCCATAAACCCCACCCATAAACCCCACCCCG
DNA 2: CGGGGTGGGGTTTATGGGTGGGGTTTATGGGTGGGGTTCTCTG
- binding result [1]: binds

B2: Sox2 cognate probe (dsDNA)
DNA 1: CAGAGGACAAAGGTGGACAAAGGTGGACAAAGCG
DNA 2: CGCTTTGTCCACCTTTGTCCACCTTTGTCCTCTG
- binding result [2]: binds

B3: Oct4 cognate probe (dsDNA)
DNA 1: CAGAGAGATGCATGTGAGATGCATGTGAGATGCATCG
DNA 2: CGATGCATCTCACATGCATCTCACATGCATCTCTCTG
- binding result [3]: binds
